Reference: patent US20220119534A1 (DRAGONFLY THERAPEUTICS, published 2022)
Residue numbers refer to the chain shown, from its start. Names may count otherwise. “And” between values parts separate entries of the source, which are not always exact repeats. Identical values can stand only once.

What was measured:
mFc-hNKG2D [1] = biological target: T1, mFc-hNKG2D (human, UniProt P26718 73-216); assay: SPR Biacore 8K 37 C; mFc-hNKG2D captured on anti-mFc chip, TriNKET as analyte; steady state fit; after 4 wks 40 C in HST pH 6.0
T1 construct: extracellular domain; Made in house (Dragonfly Tx); the order of tag and ECD follows the name mFc-hNKG2D; also called mFc-tagged human NKG2D; not shown: mouse Fc tag
T1 sequence (looked up): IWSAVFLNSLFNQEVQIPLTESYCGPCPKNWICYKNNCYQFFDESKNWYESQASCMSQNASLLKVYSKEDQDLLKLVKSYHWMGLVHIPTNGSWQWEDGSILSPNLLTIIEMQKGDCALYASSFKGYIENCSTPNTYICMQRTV

Human CLEC12A-His [2] = biological target: T2, Human CLEC12A-His (human, UniProt Q5QGZ9 65-265); assay: SPR Biacore 8K 37 C; TriNKET captured on anti-hFc chip, hCLEC12A-His as analyte; 1:1 fit; after 4 wks 40 C in CST pH 7.0, n=2
T2 construct: Recombinant soluble protein made in house (Dragonfly Tx); The hCLEC12A spot of the HuProt array is written under this molecule as well; also called hCLEC12A-His; hCLEC12A; not shown: His tag
T2 sequence: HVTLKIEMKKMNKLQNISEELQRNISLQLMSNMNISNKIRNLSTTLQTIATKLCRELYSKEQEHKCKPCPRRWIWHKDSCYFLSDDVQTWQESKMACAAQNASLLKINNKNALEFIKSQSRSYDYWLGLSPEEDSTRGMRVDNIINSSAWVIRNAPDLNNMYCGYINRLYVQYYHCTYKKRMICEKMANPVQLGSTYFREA

[3] = biological target: T3, Human CLEC12A expressed on cells (Ba/F3-hCLEC12A, PL21, HL60) (human, UniProt Q5QGZ9 1-265); assay: flow cytometry on HL-60 AML cells
T3 construct: Ba/F3 cells transduced with human CLEC12A; PL21 and HL60 AML lines express it endogenously; also called cell surface expressed CLEC12A
T3 sequence: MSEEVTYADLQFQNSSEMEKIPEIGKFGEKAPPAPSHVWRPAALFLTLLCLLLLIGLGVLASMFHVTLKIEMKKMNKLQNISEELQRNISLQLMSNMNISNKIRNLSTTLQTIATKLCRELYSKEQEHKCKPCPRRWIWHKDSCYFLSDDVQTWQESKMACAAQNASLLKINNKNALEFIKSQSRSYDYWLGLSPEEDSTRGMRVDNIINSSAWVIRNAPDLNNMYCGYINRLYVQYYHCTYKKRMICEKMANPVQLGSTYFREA

[4] = biological target: T4, Human CLEC12A-His (recombinant, K244 WT) (human, UniProt Q5QGZ9 65-265); assay: SPR, two-state fit (kd1); control sample
T4 construct: Made in house (Dragonfly Tx); also called hCLEC12A; hCLEC12A-His; not shown: His tag
T4 sequence: T2 sequence

[5] = biological target: T4, Human CLEC12A-His (recombinant, K244 WT); assay: SPR, two-state fit (ka1); fully purified protein after low pH hold
Protocol: Briefly, human Fc specific antibodies were covalently immobilized at a density ˜8000-10000 resonance units (RU) on carboxy methyl dextran matrix of a CM5 biosensor chip via amine-coupling chemistry to create an anti-hFc IgG chip. […] Association was monitored for 300 seconds and dissociation was monitored for 600 seconds. Surfaces were regenerated between cycles with three pulses of 10 mM glycine-HCl, pH 1.7 injected for 20 seconds at 100 μl/min. HBS-EP+ (1×) with 0.1 mg/ml BSA was used as running buffer throughout the experiment. Experiments were performed at physiological temperature of 37° C. To obtain kinetic rate constants and overall binding affinity, double-referenced data were fit to a two-state kinetic model using Biacore 8K Insight Evaluation software (Cytiva).

Human CLEC12A-His [6] = biological target: T5, Human CLEC12A-His (human, UniProt Q5QGZ9 65-265); assay: SPR; control sample (pH 8 stress study)
T5 construct: Recombinant soluble protein made in house; also called hCLEC12A-His; hCLEC12A; not shown: His tag
T5 sequence: T2 sequence

mFc-hNKG2D [7] = biological target: T6, mFc-hNKG2D (human, UniProt P26718 73-216); assay: SPR; control sample (pH 8 stress study)
T6 construct: extracellular domain; Recombinant mFc-tagged NKG2D dimer, made in house; also called human NKG2D; not shown: mouse Fc tag
T6 sequence (looked up): T1 sequence (looked up)

Human CD16a V158 = biological target: T7, Human CD16a V158 (human, UniProt P08637 17-208, biotinylated); assay: SPR; control sample (pH 8 stress study)
T7 construct: Bought recombinant receptor; also called hCD16a (V158); hFcγRIIIa V158
T7 sequence (P08637 17-208 F176V limits assumed): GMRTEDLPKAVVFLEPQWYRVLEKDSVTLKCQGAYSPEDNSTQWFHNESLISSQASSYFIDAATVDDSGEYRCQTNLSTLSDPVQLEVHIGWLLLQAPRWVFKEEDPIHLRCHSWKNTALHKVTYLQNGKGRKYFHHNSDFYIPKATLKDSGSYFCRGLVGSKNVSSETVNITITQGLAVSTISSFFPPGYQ

[8] = biological target: T8, recombinant human CD32a H131 (human, UniProt P12318 36-218, limits assumed, biotinylated); assay: SPR, summary table
T8 construct: also called FcγRIIa H131
T8 sequence (looked up): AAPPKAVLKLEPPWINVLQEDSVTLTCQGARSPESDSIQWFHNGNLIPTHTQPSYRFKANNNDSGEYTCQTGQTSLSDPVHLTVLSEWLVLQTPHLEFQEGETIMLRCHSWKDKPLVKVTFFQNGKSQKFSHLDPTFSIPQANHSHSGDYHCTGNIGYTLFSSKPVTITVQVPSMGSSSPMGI
Description: (§1) Human and cyno CD64, high and low affinity alleles of CD16a (V158 and F158, respectively), two alleles of CD32a (H131 and R131), CD16b, CD32b and cynomolgus CD16 were captured via biotin on a primed Biacore chip, prepared according to the manufacturer's instructions.

recombinant human CD64 [9] = biological target: T9, recombinant human CD64 (human, UniProt P12314 16-288, biotinylated); assay: SPR, summary table
T9 construct: also called hFcγRI; hCD64
T9 sequence (P12314 16-288 limits assumed): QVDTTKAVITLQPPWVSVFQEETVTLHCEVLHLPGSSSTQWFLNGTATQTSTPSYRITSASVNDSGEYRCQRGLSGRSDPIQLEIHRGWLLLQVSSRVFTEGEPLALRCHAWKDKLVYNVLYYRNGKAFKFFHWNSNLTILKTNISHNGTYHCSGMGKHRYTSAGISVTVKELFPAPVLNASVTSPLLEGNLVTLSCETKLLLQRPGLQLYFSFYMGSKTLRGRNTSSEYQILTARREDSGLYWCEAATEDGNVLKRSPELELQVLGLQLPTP
Description: as §1

recombinant human CD32b = biological target: T10, recombinant human CD32b (human, UniProt P31994 46-217, limits assumed, biotinylated); assay: SPR, summary table
T10 construct: also called FcγRIIb
T10 sequence (looked up): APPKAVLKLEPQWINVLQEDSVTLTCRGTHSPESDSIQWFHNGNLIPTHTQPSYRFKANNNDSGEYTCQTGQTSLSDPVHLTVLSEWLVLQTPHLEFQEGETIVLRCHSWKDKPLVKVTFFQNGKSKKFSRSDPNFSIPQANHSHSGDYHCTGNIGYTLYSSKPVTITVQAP
Description: as §1

[10] = biological target: T11, human CLEC12A expressed on cells (human, UniProt Q5QGZ9 1-265); assay: flow cytometry, HL60
T11 construct: Transduced isogenic cells or endogenous expression on AML cells; also called RMA-hCLEC12A; Ba/F3-hCLEC12A
T11 sequence: T3 sequence

recombinant human CD64 [11] = biological target: T9, recombinant human CD64; assay: SPR 25C, kinetic fit
Protocol: as §1
For no-signal reference, a 0 nM blank cycle at the start of each concentration series and receptor free chip surface were used. Each experimental cycle included association, dissociation and regeneration steps. All steps were executed at a flow rate of 30 μL/min and at 25° C.

[12] = biological target: T12, recombinant human CD16a V158 (human, UniProt P08637 17-208, biotinylated); assay: SPR 25C, kinetic fit, average
T12 construct: also called FcγRIIIa V158; hCD16aV
T12 sequence (P08637 17-208 F176V limits assumed): as the sequence (P08637 17-208 F176V limits assumed) above

B1: F3'-1602 TriNKET (bispecific antibody, human IgG1, kappa)
chain: QLQLQESGPGLVKPSETLSLTCTVSGFSLTNYGLHWIRQPPGKCLEWIGVIWSGGKTDYNPSLKSRVTISKDTSKNQFSLKLSSVQAADTAVYYCAKYDYDDSLDYWGQGTLVTVSSGGGGSGGGGSGGGGSGGGGSDIQMTQSPSSLSASVGDRVTITCHASQNINFWLSWYQQKPGKAPKLLIYEASNLHTGVPSRFSGSGSGTRFTLTISSLQPEDIATYYCQQSHSYPLTFGCGTKLEIKGSDKTHTCPPCPAPELLGGPSVFLFPPKPKDTLMISRTPEVTCVVVDVSHEDPEVKFNWYVDGVEVHNAKTKPREEQYNSTYRVVSVLTVLHQDWLNGKEYKCKVSNKALPAPIEKTISKAKGQPREPRVYTLPPCRDELTKNQVSLTCLVKGFYPSDIAVEWESNGQPENNYKTTPPVLVSDGSFTLYSKLTVDKSRWQQGNVFSCSVMHEALHNHYTQKSLSLSPG
heavy: EVQLVESGGGLVKPGGSLRLSCAASGFTFSSYSMNWVRQAPGKGLEWVSSISSSSSYIYYADSVKGRFTISRDNAKNSLYLQMNSLRAEDTAVYYCARGAPIGAAAGWFDPWGQGTLVTVSSASTKGPSVFPLAPSSKSTSGGTAALGCLVKDYFPEPVTVSWNSGALTSGVHTFPAVLQSSGLYSLSSVVTVPSSSLGTQTYICNVNHKPSNTKVDKKVEPKSCDKTHTCPPCPAPELLGGPSVFLFPPKPKDTLMISRTPEVTCVVVDVSHEDPEVKFNWYVDGVEVHNAKTKPREEQYNSTYRVVSVLTVLHQDWLNGKEYKCKVSNKALPAPIEKTISKAKGQPREPQVCTLPPSRDELTENQVSLTCLVKGFYPSDIAVEWESNGQPENNYKTTPPVLDSDGSFFLYSWLTVDKSRWQQGNVFSCSVMHEALHNHYTQKSLSLSPG
light: DIQMTQSPSSVSASVGDRVTITCRASQGISSWLAWYQQKPGKAPKLLIYAASSLQSGVPSRFSGSGSGTDFTLTISSLQPEDFATYYCQQGVSFPRTFGGGTKVEIKRTVAAPSVFIFPPSDEQLKSGTASVVCLLNNFYPREAKVQWKVDNALQSGNSQESVTEQDSKDSTYSLSSTLTLSKADYEKHKVYACEVTHQGLSSPVTKSFNRGEC
notes: Trispecific F3' format: CLEC12A scFv-Fc paired with NKG2D Fab-Fc; Stressed and control samples of the stability studies are the same molecule; also called AB0237
mFc-hNKG2D [1]
  Kd: 776 nM
Human CLEC12A-His [2]
  Kd: 0.86 nM
  koff: 0.000674 s⁻¹
  kon: 784000 M⁻¹ s⁻¹

B2: AB0089 TriNKET (bispecific antibody, human IgG1, kappa)
chain: B1 chain with S53V, K56A, K71V, Y98G, D101G, S103T, R207D, I220F
heavy: B1 heavy
light: B1 light
notes: F3' format heterodimer of three chains; human IgG1 Fc with EW-RVT and Y349C/S354C mutations; also called AB0089 Lot AB0089-002; CLEC12A TriNKET AB0089
[3]
  EC50: 0.74 nM
[4]
  koff: 0.0476 s⁻¹
[5]
  kon: 1.02e+07 M⁻¹ s⁻¹

B3: AB0192 TriNKET (other)
chain: EVQLVESGGGVVQPGGSLRLSCAASGFTFNAFGMHWVRQAPGKCLEWVAFISSGSTSIYYANTVKGRFTISRDNSKNTLYLQMNSLRAEDTAVYYCARDGYPTGGAMDYWGQGTSVTVSSGGGGSGGGGSGGGGSGGGGSDIQMTQSPSSLSASVGDRVTITCKASQDIYNYLSWFQQKPGKAPKPLIYRANILVSGVPSRFSGSGSGQDYTFTISSLQPEDIATYYCLQFDAFPFTFGCGTKLEIKGSDKTHTCPPCPAPELLGGPSVFLFPPKPKDTLMISRTPEVTCVVVDVSHEDPEVKFNWYVDGVEVHNAKTKPREEQYNSTYRVVSVLTVLHQDWLNGKEYKCKVSNKALPAPIEKTISKAKGQPREPRVYTLPPCRDELTKNQVSLTCLVKGFYPSDIAVEWESNGQPENNYKTTPPVLVSDGSFTLYSKLTVDKSRWQQGNVFSCSVMHEALHNHYTQKSLSLSPG
heavy: B1 heavy
light: B1 light
notes: the condition stands under assay; also called AB0192 Lot AB0192-005
Human CLEC12A-His [6]
  Kd: 1.68 nM
  koff: 0.00129 s⁻¹
  kon: 771000 M⁻¹ s⁻¹
mFc-hNKG2D [7]
  Kd: 588 nM
  koff: 0.122 s⁻¹
  kon: 208000 M⁻¹ s⁻¹
Human CD16a V158
  Kd: 171 nM
  koff: 0.0199 s⁻¹
  kon: 117000 M⁻¹ s⁻¹

B4: F3'-1602 TriNKET (other)
chain: B1 chain
heavy: B1 heavy
light: B1 light
notes: CLEC12A scFv-Fc, NKG2D A49MI Fab-Fc, human IgG1 Fc; also called AB0237
[8]
  Kd: 900 nM
Recombinant human CD64 [9]
  Kd: 5.2 nM
Recombinant human CD32b
  Kd: 6600 nM
[10]
  EC50: 1.6 nM
  Max binding MFI: 924 MFI
Recombinant human CD64 [11]
  Kd: 5.2 nM and 5.3 nM
  koff: 0.00027 s⁻¹ and 0.00028 s⁻¹ and 0.00026 s⁻¹
  kon: 53000 M⁻¹ s⁻¹ and 52000 M⁻¹ s⁻¹ and 51000 M⁻¹ s⁻¹
[12]
  Kd: 238 nM
  koff: 0.022 s⁻¹
  kon: 94000 M⁻¹ s⁻¹
